Assay results reported in US20070099830.

What was measured:
[1] = biological target: bovine recombinant glutamate dehydrogenase, P00366
[2] = biological target: histone 2A protein

Chain of bovine recombinant glutamate dehydrogenase, P00366 (P00366 58-558): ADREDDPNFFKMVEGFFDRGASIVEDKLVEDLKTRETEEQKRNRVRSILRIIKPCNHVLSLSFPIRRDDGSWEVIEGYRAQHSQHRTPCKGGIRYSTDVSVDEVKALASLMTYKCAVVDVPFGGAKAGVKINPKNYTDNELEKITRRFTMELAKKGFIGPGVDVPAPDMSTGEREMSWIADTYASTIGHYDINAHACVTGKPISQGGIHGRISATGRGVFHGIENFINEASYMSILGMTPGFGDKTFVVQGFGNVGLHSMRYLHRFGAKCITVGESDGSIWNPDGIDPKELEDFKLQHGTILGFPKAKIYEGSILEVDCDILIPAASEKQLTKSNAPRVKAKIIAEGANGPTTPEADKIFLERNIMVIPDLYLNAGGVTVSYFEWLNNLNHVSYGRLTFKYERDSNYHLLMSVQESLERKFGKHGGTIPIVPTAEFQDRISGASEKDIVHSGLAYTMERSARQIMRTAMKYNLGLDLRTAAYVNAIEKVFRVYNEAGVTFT

B1: human Sirt4 with a C-terminal FLAG (protein)
chain: IGLFVPASPPLDPEKVKELQRFITLSKRLLVMTGAGISTESGIPDYRSEKVGLYARTDRRPIQHGDFVRSAPIRQRYWARNFVGWPQFSSHQPNPAHWALSTWEKLGKLYWLVTQNVDALHTKAGSRRLTELHGCMDRVLCLDCGEQTPRGVLQERFQVLNPTWSAEAHGLAPDGDVFLSEEQVRSFQVPTCVQCGGHLKPDVVFFGDTVNPDKVDFVHKRVKEADSLLVVGSSLQVYSGYRFILTAWEKKLPIAILNIGPTRSDDLACLKLNSRCGELLPLIDPC
glutamate dehydrogenase activity (disappearance of NADH, A340) after one hour with Sirt4 and NAD [1]: Sirt4, but not the buffer control, significantly reduced the enzymatic activity of glutamate dehydrogenase | mass spectroscopy of histone 2A after incubation with Sirt4 and NAD [2]: Sirt4 transferred an approximately 500 Dalton moiety to Histone 2A
